According to US20210355204A1 (XOMA TECHNOLOGY, published 2021):

Tests used:
Assay in all cases: SPR
TGFβ2 = biological target: T1, TGFβ2 (human, UniProt P61812 303-414)
T1 construct: Commercial recombinant protein; also called transforming growth factor beta 2
T1 sequence (looked up): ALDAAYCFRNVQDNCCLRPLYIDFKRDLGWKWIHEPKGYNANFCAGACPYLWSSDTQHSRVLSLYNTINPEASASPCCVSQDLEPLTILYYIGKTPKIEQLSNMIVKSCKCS

TGFβ1 = biological target: T2, TGFβ1 (human, UniProt P01137 279-390)
T2 construct: mature; also called transforming growth factor beta 1

TGFβ3 = biological target: T3, TGFβ3 (human, UniProt P10600 301-412)
T3 construct: Commercial recombinant protein; also called transforming growth factor beta 3
T3 sequence (looked up): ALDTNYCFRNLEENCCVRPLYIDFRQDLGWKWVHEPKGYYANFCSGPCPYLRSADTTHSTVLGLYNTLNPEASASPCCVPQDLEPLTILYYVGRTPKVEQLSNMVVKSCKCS

Measured: binding result

T2 sequence (P01137 279-390 limits assumed): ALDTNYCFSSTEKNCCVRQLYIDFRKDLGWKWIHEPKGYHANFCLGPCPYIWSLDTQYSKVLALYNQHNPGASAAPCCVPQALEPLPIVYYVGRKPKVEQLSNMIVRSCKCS

B1: TGFβ-RI (recombinant form) (receptor, UniProt P36897 34-126, looked up)
chain: LQCFCHLCTKDNFTCVTDGLCFVSVTETTDKVIHNSMCIAEIDLIPRDRPFVCAPSSKTGSVTTTYCCNQDHCNKIELPTTVKSSPGLGPVEL
notes: also called TGFβ receptor type 1 protein; TGFβ-R1
no binding: all assays above
